Read-outs that look alike come from different tables or passages of the source.
Key:
Eis_Mtb = target: T1, Eis_Mtb (Mycobacterium tuberculosis, UniProt P9WFK7); experiment: dead-end inhibition kinetics, DTNB acetyltransferase assay, purified enzyme; type: biochemical
T1 construct: gene eis

[1] = test system: CCC(=O)SCCNC(=O)CCNC(=O)[C@H](O)C(C)(C)COP(=O)(O)OP(=O)(O)OC[C@H]1O[C@@H](n2cnc3c(N)ncnc32)[C@H](O)[C@@H]1OP(=O)(O)O; experiment: purified protein
[2] = test system: CC(=O)SCCNC(=O)CCNC(=O)[C@H](O)C(C)(C)COP(=O)(O)OP(=O)(O)OC[C@H]1O[C@@H](n2cnc3c(N)ncnc32)[C@H](O)[C@@H]1OP(=O)(O)O; experiment: purified protein; conditions: acetyl-CoA binding first followed by histamine (ordered sequential mechanism)
NCCc1c[nH]cn1 = experiment: purified protein
[3] = acetyl-CoA binds after acetyl-CoA to form a precatalytic ternary complex

T1 sequence (P9WFK7 2-402): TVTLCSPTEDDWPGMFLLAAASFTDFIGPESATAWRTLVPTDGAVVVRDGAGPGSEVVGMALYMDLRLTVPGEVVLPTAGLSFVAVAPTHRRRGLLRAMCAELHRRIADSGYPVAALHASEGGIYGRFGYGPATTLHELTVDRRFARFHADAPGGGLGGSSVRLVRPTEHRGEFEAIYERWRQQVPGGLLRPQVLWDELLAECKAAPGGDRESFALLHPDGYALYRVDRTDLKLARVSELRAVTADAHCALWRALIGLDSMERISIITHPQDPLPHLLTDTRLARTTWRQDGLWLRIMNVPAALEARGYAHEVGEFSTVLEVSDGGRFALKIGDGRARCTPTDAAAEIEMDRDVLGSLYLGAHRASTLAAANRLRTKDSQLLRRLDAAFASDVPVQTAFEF

Compound: CCCCCCCC/C=C\CCCCCCCC(=O)SCCNC(=O)CCNC(=O)[C@H](O)C(C)(C)COP(=O)(O)OP(=O)(O)OC[C@H]1O[C@@H](n2cnc3c(N)ncnc32)[C@H](O)[C@@H]1OP(=O)(O)O [oleoyl-CoA]
- Ki (Eis_Mtb): 0.268 ± 0.0684 µM

Compound: OCCc1ccc(O)cc1 [tyrosol]
- Ki (Eis_Mtb; read-out: Ki): 175 ± 48.7 µM

Compound: Eis_Msm (Mycolicibacterium smegmatis MC2 155)
- Km [1]: 98 ± 23 µM

Compound: Eis_Mtb (Mycobacterium tuberculosis H37Rv)
- Km [2]: (1.2 ± 0.27) × 10^2 μM
- kcat [2]: 5.6 ± 0.2 s⁻¹
- kcat/Km [2]: 52000 ± 13000 M⁻¹ s⁻¹
- Km [1]: 47 ± 10 µM
- kcat [1]: 0.6 ± 0.1 s⁻¹
- kcat/Km [1]: 14000 ± 4000 M⁻¹ s⁻¹
- Km (NCCc1c[nH]cn1): (28 ± 5.2) × 10^2 μM
- kcat (NCCc1c[nH]cn1; [3]): 0.5 ± 0.04 s⁻¹
- kcat/Km (NCCc1c[nH]cn1; [3]): 170 ± 83 M⁻¹ s⁻¹

Reference: publication PMC5799202, “Eis, a novel family of arylalkylamine N-acetyltransferase (EC 2.3.1.87)” (Scientific Reports, 2018)
